# Results: PMC8013792, “Bacterial protein domains with a novel Ig‐like fold target human CEACAM receptors” (The EMBO Journal, 2021)
# B1: IgSF (IgI3) domain of β protein, recombinant, biotinylated [modified: biotin, C-terminal] [Streptococcus agalactiae (GBS)] / recombinant CEACAM1 N-terminal domain, unglycosylated, 6xHis tagged [human] (parent)
# chain 1: MAQLTTESMPFNVAEGKEVLLLVHNLPQQLFGYSWYKGERVDGNRQIVGYAIGTQQATPGPANSGRETIYPNASLLIQNVTQNDTGFYTLQVIKSDLVNEEATGQFHVY
# chain 2: ANENNQQKIELTVSPENITVYEGEDVKFTVTAKSDSKTTLDFSDLLTKYNPSVSDRISTNYKTNTDNHKIAEITIKNLKLNESQTVTLKAKDDSGNVVEKTFTITVQKKEEKQLPSTGGS
# Variants of: B1
# Assay: flow cytometry on coated dynabeads
# Settings: with recombinant CEACAM1 N-terminal domain, parent: 390, read off a plot
row,Variant,response (Geometric MFI)
1,chain 2 S52A,320
2,chain 2 L45A,350
